Measurements from article doi:10.1101/2025.10.27.684738.

What was measured:
ANXA11 Nt = ANXA11 Nt (UniProt P50995 1-191); test: MST
ANXA11 Ct = target: T1, ANXA11 Ct (UniProt P50995 201-505); test: MST
T1 sequence: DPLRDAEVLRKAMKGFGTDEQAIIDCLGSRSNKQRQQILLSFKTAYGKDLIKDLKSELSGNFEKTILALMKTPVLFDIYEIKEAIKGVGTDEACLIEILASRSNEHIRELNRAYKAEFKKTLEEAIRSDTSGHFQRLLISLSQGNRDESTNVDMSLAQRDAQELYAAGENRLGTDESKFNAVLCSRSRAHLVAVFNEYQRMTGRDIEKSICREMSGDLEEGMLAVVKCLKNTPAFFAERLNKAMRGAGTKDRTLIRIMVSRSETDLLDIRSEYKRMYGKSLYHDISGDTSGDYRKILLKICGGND

Sequence of ANXA11 Nt (P50995 1-191): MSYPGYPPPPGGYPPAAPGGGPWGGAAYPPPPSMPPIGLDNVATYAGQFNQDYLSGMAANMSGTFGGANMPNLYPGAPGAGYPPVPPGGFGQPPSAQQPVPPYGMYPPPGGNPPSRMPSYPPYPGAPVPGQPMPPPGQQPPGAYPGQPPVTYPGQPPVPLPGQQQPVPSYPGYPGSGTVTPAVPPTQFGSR

**Q.** UUUUUUUUUU (ssRNA) [poly-U 10-mer RNA] was tested. Which Kd (ANXA11 Nt) did it give?
**A.** 4.18 ± 0.8 µM

**Q.** And the Kd (ANXA11 Ct)?
**A.** 3.55 ± 0.3 µM
